# ± gives the uncertainty stated by the source.
# Assay: self-splicing fitness, log relative to wild type (ln ratio); higher = more splicing; Tetrahymena group I intron in knt gene, E. coli kanamycin selection, DiMSum; sequences stand for … in CUCUCU…GGAGGGAAAAGUUAUCAGGCAUGCACCUGGUAGCUAGUCUUUAAACCAAUAGAUUGCAUCGGUUUAAAAGGCAAGACCGUCAAAUUGCGGGAAAGGGGUCAACAGCCGUUCAGUACCAAGUCUCAGGGGAAACUUUGAGAUGGCCUUGCAAAGGGUAUGGUAAUAAGCUGACGGACAUGGUCCUAACCACGCAGCCAAGUCCUAAGUCAACAGAUCUUCUGUUGAUAUGGAUGCAGUUCACAGACUAAAUGUCGGUCGGGGAAGAUGUAUUCUUCUCAUAAGAUAUAGUCGGACCUCUCCUUAAUGGGAGCUAGCGGAUGAAGUGAUGCAACACUGGAGCCGCUGGGAACUAAUUUGUAUGCGAAAGUAUAUUGAUUAGUUUUGGAGUACUCGUGGUCG
# Outline: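 Fitness was computed with DiMSum as the error-weighted combination of replicate fold changes, kanamycin versus none, each normalised to wild type. The library randomised all eight intron nucleotides of the P1ex region, with the intron placed in the knt kanamycin-resistance gene on pET-22b(+) in E. coli BL21(DE3). Six replicate transformations were grown overnight at 37°C or 30°C on LB agar with or without 25 μg/mL kanamycin, plus 100 μg/mL carbenicillin, 50 μM IPTG and 0.2% rhamnose. Pooled colonies were amplicon-sequenced on an Illumina HiSeq 2500.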
Sequence,self-splicing fitness (ln) (30 °C),self-splicing fitness (ln) (37 °C)
UGAGAGCAAUAUUACGACUA,-1.47 ± 0.22,-1.64 ± 0.21
UGAGAGCAAUAUUACGCCUU,-3 ± 0.18,-3.73 ± 0.34
UGAGAGCAAUAUUACGCGAU,-3.4 ± 0.33,-2.24 ± 0.39
UGAGAGCAAUAUUACGCGUG,-2.82 ± 0.24,0.21 ± 0.21
UGAGAGCAAUAUUACGCUUA,,-2.05 ± 0.3
UGAGAGCAAUAUUACGGCUC,-3.55 ± 0.36,
UGAGAGCAAUAUUACGGGUG,-3.65 ± 0.19,-2.11 ± 0.19
UGAGAGCAAUAUUACGGUCU,,-2.37 ± 0.36
UGAGAGCAAUAUUACGGUUC,-3.4 ± 0.32,-1.5 ± 0.23
UGAGAGCAAUAUUACGUGCG,-1.95 ± 0.13,-1.42 ± 0.15
UGAUAGCAAUAUUACGAAAA,-1.85 ± 0.31,-2.48 ± 0.4
UGAUAGCAAUAUUACGAAUU,-4.02 ± 0.46,-2.64 ± 0.23
UGAUAGCAAUAUUACGAUAU,-2.94 ± 0.2,-2.12 ± 0.21
UGAUAGCAAUAUUACGAUGC,-3.93 ± 0.26,-1.95 ± 0.17
UGAUAGCAAUAUUACGCAAC,-3.43 ± 0.44,
UGAUAGCAAUAUUACGCCUC,-3.09 ± 0.32,-1.34 ± 0.39
UGAUAGCAAUAUUACGCGAU,-2.6 ± 0.29,-2.65 ± 0.26
UGAUAGCAAUAUUACGCUCG,-0.235 ± 0.13,0.0592 ± 0.21
UGAUAGCAAUAUUACGCUGC,-3.67 ± 0.31,-2.61 ± 0.48
UGAUAGCAAUAUUACGGAAA,-4.03 ± 0.43,-2.2 ± 0.27
UGAUAGCAAUAUUACGGACG,-0.432 ± 0.1,-0.181 ± 0.15
UGAUAGCAAUAUUACGGCCG,0.151 ± 0.1,0.324 ± 0.15
UGAUAGCAAUAUUACGGCUG,0.473 ± 0.11,-0.149 ± 0.14
UGAUAGCAAUAUUACGGGUG,-1.56 ± 0.099,-0.678 ± 0.11
UGAUAGCAAUAUUACGUACG,-0.418 ± 0.074,0.13 ± 0.1

Sequence,self-splicing fitness (ln) (30 °C),self-splicing fitness (ln) (37 °C)
UGAUAGCAAUAUUACGUAUA,-1.17 ± 0.18,-1.53 ± 0.19
UGAUAGCAAUAUUACGUGAC,-3.54 ± 0.29,-1.82 ± 0.29
UGAUAGCAAUAUUACGUGCU,-1.84 ± 0.094,-1.59 ± 0.14
UGAUAGCAAUAUUACGUUGG,-2.45 ± 0.12,-1.63 ± 0.16
UGCAAGCAAUAUUACGAACC,-1.15 ± 0.15,-0.525 ± 0.17
UGCAAGCAAUAUUACGACCU,-0.737 ± 0.07,-0.219 ± 0.089
UGCAAGCAAUAUUACGACGU,-1.76 ± 0.1,-1.1 ± 0.13
UGCAAGCAAUAUUACGAGAA,-2.52 ± 0.47,-1.94 ± 0.27
UGCAAGCAAUAUUACGAGAU,-3.16 ± 0.24,-3.02 ± 0.35
UGCAAGCAAUAUUACGAGCG,-2.37 ± 0.092,-0.896 ± 0.1
UGCAAGCAAUAUUACGAGCU,-0.536 ± 0.089,-0.0945 ± 0.1
UGCAAGCAAUAUUACGAGGC,-4.02 ± 0.27,-2.13 ± 0.23
UGCAAGCAAUAUUACGAUUA,-0.19 ± 0.077,0.163 ± 0.092
UGCAAGCAAUAUUACGCCAA,-1.67 ± 0.34,-0.657 ± 0.19
UGCAAGCAAUAUUACGCCUU,-1 ± 0.16,-0.449 ± 0.15
UGCAAGCAAUAUUACGCGCU,-1.28 ± 0.12,-0.818 ± 0.12
UGCAAGCAAUAUUACGGCAG,-0.827 ± 0.078,-0.0588 ± 0.12
UGCAAGCAAUAUUACGGGAU,-3.04 ± 0.13,-2.89 ± 0.15
UGCAAGCAAUAUUACGGGGC,-3.59 ± 0.27,-2.56 ± 0.24
UGCAAGCAAUAUUACGGUCC,-1.81 ± 0.057,-1.16 ± 0.084
UGCAAGCAAUAUUACGGUGA,-0.55 ± 0.068,0.00833 ± 0.086
UGCAAGCAAUAUUACGUAGG,-3.31 ± 0.21,-0.277 ± 0.14
UGCAAGCAAUAUUACGUCGA,-1.09 ± 0.082,-0.989 ± 0.089
UGCAAGCAAUAUUACGUGAG,-3.87 ± 0.21,-2.72 ± 0.18
UGCAAGCAAUAUUACGUUGU,-4.31 ± 0.24,-2.78 ± 0.2

Sequence,self-splicing fitness (ln) (30 °C),self-splicing fitness (ln) (37 °C)
UGCCAGCAAUAUUACGAAAC,,-2.42 ± 0.23
UGCCAGCAAUAUUACGAAGA,-2.87 ± 0.18,-1.33 ± 0.14
UGCCAGCAAUAUUACGACAG,-1.31 ± 0.1,-0.406 ± 0.12
UGCCAGCAAUAUUACGACGA,-1.01 ± 0.12,-1.01 ± 0.12
UGCCAGCAAUAUUACGAGUC,-3.49 ± 0.16,-1.6 ± 0.16
UGCCAGCAAUAUUACGAUAG,-2.17 ± 0.12,-1.09 ± 0.12
UGCCAGCAAUAUUACGAUGA,-1.99 ± 0.14,-0.997 ± 0.12
UGCCAGCAAUAUUACGAUUC,-2.68 ± 0.18,-2.41 ± 0.3
UGCCAGCAAUAUUACGCUCC,-2.88 ± 0.12,-1.15 ± 0.14
UGCCAGCAAUAUUACGGAAU,-2.74 ± 0.15,-1.95 ± 0.11
UGCCAGCAAUAUUACGGCAU,-2.48 ± 0.15,-3.23 ± 0.26
UGCCAGCAAUAUUACGGCCC,-0.651 ± 0.12,-0.528 ± 0.17
UGCCAGCAAUAUUACGGCGC,-3.8 ± 0.27,-3.04 ± 0.23
UGCCAGCAAUAUUACGGUCC,-0.84 ± 0.2,0.136 ± 0.2
UGCCAGCAAUAUUACGUGCU,-3.14 ± 0.11,-1.48 ± 0.1
UGCCAGCAAUAUUACGUUUG,-2.35 ± 0.092,-0.857 ± 0.12
UGCGAGCAAUAUUACGAAGA,-3.24 ± 0.37,-1.97 ± 0.28
UGCGAGCAAUAUUACGACAA,-1.55 ± 0.3,-0.809 ± 0.2
UGCGAGCAAUAUUACGACAG,-2.55 ± 0.21,-1.29 ± 0.18
UGCGAGCAAUAUUACGAGCA,-1.98 ± 0.18,-2.37 ± 0.22
UGCGAGCAAUAUUACGAGUG,-2.85 ± 0.17,-2.32 ± 0.28
UGCGAGCAAUAUUACGCCGA,,-1.26 ± 0.4
UGCGAGCAAUAUUACGCGGC,-3.44 ± 0.33,-3.46 ± 0.46
UGCGAGCAAUAUUACGCUAG,-2.68 ± 0.45,
UGCGAGCAAUAUUACGCUCG,-2.91 ± 0.22,-1.92 ± 0.23

Sequence,self-splicing fitness (ln) (30 °C),self-splicing fitness (ln) (37 °C)
UGCGAGCAAUAUUACGGAAG,,-2.26 ± 0.34
UGCGAGCAAUAUUACGGAUA,-2.36 ± 0.27,-2.08 ± 0.36
UGCGAGCAAUAUUACGGAUG,-3.65 ± 0.16,-2.02 ± 0.14
UGCGAGCAAUAUUACGGCAU,-2.64 ± 0.27,
UGCGAGCAAUAUUACGGCGG,-1.21 ± 0.084,-0.816 ± 0.13
UGCGAGCAAUAUUACGGCUA,0.388 ± 0.12,0.499 ± 0.15
UGCGAGCAAUAUUACGGUAU,-5.17 ± 0.38,-2.32 ± 0.19
UGCGAGCAAUAUUACGGUUG,-1.51 ± 0.16,-1.82 ± 0.26
UGCGAGCAAUAUUACGUAGC,-2.36 ± 0.27,-2.05 ± 0.38
UGCGAGCAAUAUUACGUCGG,,-1.91 ± 0.26
UGCGAGCAAUAUUACGUUCU,-1.68 ± 0.12,-2.05 ± 0.14
UGCGAGCAAUAUUACGUUUU,-5.01 ± 0.45,-3.25 ± 0.24
UGCUAGCAAUAUUACGAAGA,,-2.09 ± 0.2
UGCUAGCAAUAUUACGAAGU,-2.88 ± 0.3,-2.51 ± 0.49
UGCUAGCAAUAUUACGACUA,-0.649 ± 0.16,-0.872 ± 0.14
UGCUAGCAAUAUUACGAGGU,-2.94 ± 0.27,-3.27 ± 0.39
UGCUAGCAAUAUUACGAUAC,-2.57 ± 0.28,-1.93 ± 0.28
UGCUAGCAAUAUUACGAUGA,-1 ± 0.1,-1.2 ± 0.09
UGCUAGCAAUAUUACGCGGU,-4.3 ± 0.42,-2.36 ± 0.31
UGCUAGCAAUAUUACGGACG,0.0612 ± 0.08,0.414 ± 0.099
UGCUAGCAAUAUUACGGCCC,-1.72 ± 0.23,-0.878 ± 0.32
UGCUAGCAAUAUUACGGGCA,-3.8 ± 0.25,-2.02 ± 0.19
UGCUAGCAAUAUUACGGUCC,-2.01 ± 0.19,0.11 ± 0.21

# — the supplement of paper PMC7877785
